Legend:
[1] = system: T1, O=c1[nH]c(=O)c2[nH]c(=O)[nH]c2[nH]1; assay: cells, lysate or membranes; assay type: cell-based, Homo sapiens; details: pH 10, Na+ Krebs-Ringer buffer, 37 °C, 5 min, 0-3 mM urate (not saturated), labelled compound
T1 construct: full-length wild type, 650 aa, C-terminal EGFP tag (pEGFP-N1), transiently expressed in HEK293 cells

[2] = system: T2, O=c1[nH]c(=O)c2[nH]c(=O)[nH]c2[nH]1; assay: cells, lysate or membranes; assay type: cell-based, Mus musculus; details: pH 10, Na+ Krebs-Ringer buffer, 37 °C, 5 min, 0-3 mM urate (not saturated), labelled compound
T2 construct: full-length, 648 aa, C-terminal EGFP tag (pEGFP-N1), transiently expressed in HEK293 cells

Row | Substance | Km [1] [mM] | Km [2] [mM]
1 | human SVCT2 (SVCT2/SLC23A2) (Homo sapiens) | 3.86 | 
2 | mouse Svct2 (Svct2/Slc23a2) (Mus musculus) |  | 3.16

Source: publication PMC10374969, “SVCT2/SLC23A2 is a sodium-dependent urate transporter: functional properties and practical application” (The Journal of Biological Chemistry, 2023)
